The source of these data is article PMC6367345 (Scientific Reports, 2019).

By Kd is commonly meant the constant that tells how readily two partners part at equilibrium. The low end stands for a tighter complex, the high end for a looser complex. By koff is commonly meant the first-order rate constant of dissociation. By kon is commonly meant the rate constant with which the complex forms. The low end stands for slower complex formation, the high end for faster complex formation.

One experiment deals with MEDI-579 Fab (human). Put plainly: SPR; BIAcore T100; antibody (MEDI-579 Fab) amine-coupled to a CM3 sensorchip at about 500 RU; serial dilution of PAI-1 between 6.25 nM and 25 pM in HBS-EP+ passed over the surface.
Experiment [1] has as its target human plasminogen activator inhibitor-1 (PAI-1), active (native) form (Homo sapiens, UniProt P05121, glycosylated (SPR preparation)).
The target in another experiment is T1, rat PAI-1 (Rattus norvegicus, UniProt P20961).
T1 construct: source: bought: Molecular Innovations (SPR)
Kind of experiment: SPR; BIAcore T100; antibody (MEDI-579 Fab) amine-coupled to a CM3 sensorchip at about 500 RU; serial dilution of PAI-1 between 6.25 nM and 25 pM in HBS-EP+ passed over the surface. To be noted: both partners purified. (In SPR one partner is held on a chip, and binding of the other changes the refractive index at the surface.)

Positions count from the first letter of the chain named.

T1 sequence (P20961 24-402): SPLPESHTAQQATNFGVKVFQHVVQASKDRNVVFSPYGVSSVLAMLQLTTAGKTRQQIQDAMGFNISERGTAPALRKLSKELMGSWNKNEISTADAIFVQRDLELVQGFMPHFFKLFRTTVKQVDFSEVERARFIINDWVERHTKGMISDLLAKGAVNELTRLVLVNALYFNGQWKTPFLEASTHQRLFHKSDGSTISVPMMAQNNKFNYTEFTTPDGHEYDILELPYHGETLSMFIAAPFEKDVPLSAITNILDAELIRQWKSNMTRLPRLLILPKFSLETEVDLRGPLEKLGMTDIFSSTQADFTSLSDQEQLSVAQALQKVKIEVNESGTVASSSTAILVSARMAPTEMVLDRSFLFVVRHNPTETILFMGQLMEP
Chain of MEDI-579 Fab (human) (light, as listed by the source): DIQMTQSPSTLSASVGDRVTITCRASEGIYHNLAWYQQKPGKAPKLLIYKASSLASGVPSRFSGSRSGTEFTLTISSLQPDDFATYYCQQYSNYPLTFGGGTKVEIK
Chain of human plasminogen activator inhibitor-1 (PAI-1), active (native) form (Homo sapiens, UniProt P05121, glycosylated (SPR preparation)) (P05121 24-402): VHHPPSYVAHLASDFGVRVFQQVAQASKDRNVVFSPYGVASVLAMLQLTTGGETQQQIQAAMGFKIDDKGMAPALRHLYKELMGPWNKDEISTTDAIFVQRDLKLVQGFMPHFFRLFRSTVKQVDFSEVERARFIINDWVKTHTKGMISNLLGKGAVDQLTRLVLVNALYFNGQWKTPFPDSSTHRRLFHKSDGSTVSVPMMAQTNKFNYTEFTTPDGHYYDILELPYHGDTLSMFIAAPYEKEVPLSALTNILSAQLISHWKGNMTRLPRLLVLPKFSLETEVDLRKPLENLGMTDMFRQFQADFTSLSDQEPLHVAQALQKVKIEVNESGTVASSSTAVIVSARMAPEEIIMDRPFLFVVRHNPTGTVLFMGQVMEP

In the experiment with MEDI-579 Fab (human), “human plasminogen activator inhibitor-1 (PAI-1), active (native) form (from UniProt P05121 24-402) (natural protein)” gave a Kd of 0.006 nM, a koff of 4.18e-05 s⁻¹ and a kon of 7.02e+06 M⁻¹ s⁻¹.

B1: Parent (antibody, V domains shown)
VH: QVQLQQSGAEVKKPGSSVKVSCKASGGTFSSYAISWVRQAPGQGLEWMGGIIPIFDTANYAQKFQGRVTITADESTSTAYMELSSLRSEDTAVYYCAREKRQWLEGHFDYWGRGTLVTVSS
VL: DIQMTQSPSFLSASIGDRVTITCRASEGIYHWLAWYQQKPGKAPKLLIYKASSLASGAPSRFSGSGSGTDFTLTISSLQPDDFATYYCQQYSNYPLTFGGGTKLEIK
For the molecule B1, the binding result in experiment [1] is reported as “binds”.

B2: MEDI-579 Fab (Fab, V domains shown)
VH: B1 VH with Q5V, I54T, D56G, K100R
VL: B1 VL with F10T, I15V, W32N, A58V, G66R, D70E, L104V
notes: heavy chain of the Fab; closest germline IGHV1-69*12; light chain of the Fab; closest germline IGKV1-5*03; The Fab for crystallisation was made by papain digestion of the IgG1
In the experiment with rat PAI-1, B2 registered a Kd of 0.105 nM, a koff of 0.000797 s⁻¹ and a kon of 7.64e+06 M⁻¹ s⁻¹.
